{
  "source": "paper PMC7056577",
  "binders": {"B1": {"name": "Arabidopsis CRY1 expressed in transgenic Arabidopsis (GFP-CRY1 and Myc-CRY1), Q43125 1-681 (natural protein)", "chain": "MSGSVSGCGSGGCSIVWFRRDLRVEDNPALAAAVRAGPVIALFVWAPEEEGHYHPGRVSRWWLKNSLAQLDSSLRSLGTCLITKRSTDSVASLLDVVKSTGASQIFFNHLYDPLSLVRDHRAKDVLTAQGIAVRSFNADLLYEPWEVTDELGRPFSMFAAFWERCLSMPYDPESPLLPPKKIISGDVSKCVADPLVFEDDSEKGSNALLARAWSPGWSNGDKALTTFINGPLLEYSKNRRKADSATTSFLSPHLHFGEVSVRKVFHLVRIKQVAWANEGNEAGEESVNLFLKSIGLREYSRYISFNHPYSHERPLLGHLKFFPWAVDENYFKAWRQGRTGYPLVDAGMRELWATGWLHDRIRVVVSSFFVKVLQLPWRWGMKYFWDTLLDADLESDALGWQYITGTLPDSREFDRIDNPQFEGYKFDPNGEYVRRWLPELSRLPTDWIHHPWNAPESVLQAAGIELGSNYPLPIVGLDEAKARLHEALSQMWQLEAASRAAIENGSEEGLGDSAEVEEAPIEFPRDITMEETEPTRLNPNRRYEDQMVPSITSSLIRPEEDEESSLNLRNSVGDSRAEVPRNMVNTNQAQQRRAEPASNQVTAMIPEFNIRIVAESTEDSTAESSSSGRRERSGGIVPEWSPGYSEQFPSEENGIGGGSTTSSYLQNHHEILNWRRLSQTG"}},
  "molecular_target": "T1, Arabidopsis CRY1 expressed in transgenic Arabidopsis (GFP-CRY1 and Myc-CRY1) (Arabidopsis), Q43125",
  "T1 chain": "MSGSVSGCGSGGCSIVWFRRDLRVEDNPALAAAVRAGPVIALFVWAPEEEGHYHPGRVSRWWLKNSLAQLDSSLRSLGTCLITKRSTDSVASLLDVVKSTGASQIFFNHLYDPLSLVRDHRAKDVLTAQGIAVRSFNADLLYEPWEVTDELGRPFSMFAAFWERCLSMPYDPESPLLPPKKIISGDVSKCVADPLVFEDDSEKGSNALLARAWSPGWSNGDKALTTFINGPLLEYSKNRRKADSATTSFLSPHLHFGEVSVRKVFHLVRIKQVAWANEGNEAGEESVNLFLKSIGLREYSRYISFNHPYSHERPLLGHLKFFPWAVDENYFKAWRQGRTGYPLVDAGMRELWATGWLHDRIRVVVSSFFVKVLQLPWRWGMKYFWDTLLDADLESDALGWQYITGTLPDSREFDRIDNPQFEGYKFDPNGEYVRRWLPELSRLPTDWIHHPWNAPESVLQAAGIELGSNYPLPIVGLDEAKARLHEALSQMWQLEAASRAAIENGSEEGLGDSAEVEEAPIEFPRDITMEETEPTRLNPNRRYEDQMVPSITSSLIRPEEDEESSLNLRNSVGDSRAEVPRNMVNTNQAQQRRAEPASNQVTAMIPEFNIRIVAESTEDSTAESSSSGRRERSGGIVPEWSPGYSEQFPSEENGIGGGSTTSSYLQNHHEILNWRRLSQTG",
  "assay": "co-IP",
  "conditions": "remark: other sources report otherwise",
  "note": "“And” between values parts separate entries of the source, which are not always exact repeats. Identical values can stand only once.",
  "data": [
    {"binder": "B1", "values": [
      {"measurement": "60F50 (fluence rate of blue light for 50% photooligomerization after 60 seconds)", "result": "14.9 μmolm^−2s^−1 and 16.2 μmolm^−2s^−1"}
    ]}
  ]
}
